# Measurements from patent publication US20100196953.
# Changes are numbered by the printed parent chain.
# B1: Ser172Ala porcine trypsin (protein)
# chain: IVGGYTCAANSIPYQVSLNSGSHFCGGSLINSQWVVSAAHCYKSRIQVRLGEHNIDVLEGNEQFINAAKIITHPNFNGNTLDNDIMLIKLSSPATLNSRVATVSLPRSCAAAGTECLISGWGNTKSSGSSYPSLLQCLKAPVLSDSSCKSSYPGQITGNMICVGFLEGGKDACQGDSGGPVVCNGQLQGIVSWGYGCAQKNKPGVYTKVCNYVNWIQQTIAAN
# B2: native, recombinant porcine trypsin (wildtype porcine pancreatic trypsin isoform I) (protein)
# chain: B1 chain with A172S
# Assays:
# pre-pro-insulin glargine [1] = system: pre-pro-insulin glargine
# [2] = molecular target: pre-pro-insulin (human insulin)
# pre-pro-insulin glargine [3] = molecular target: pre-pro-insulin glargine; remark: listed apart in the source
# [4] = molecular target: pre-pro-insulin glulisine
Molecule,by-product formation in pre-pro-insulin processing (HPLC) (pre-pro-insulin glargine [1]),Yield (external standard) [%] [2],des-Thr [area %] [2],Σ A0 compounds [area %] [2],Σ Arg-Ins [area %] [2],Σ pre-Arg-Ins [area %] [2],Insulin glargine [area %] (pre-pro-insulin glargine [3]),Yield (external standard) [%] (pre-pro-insulin glargine [3]),des-Thr [area %] (pre-pro-insulin glargine [3]),pre-Insulin glargine [area %] (pre-pro-insulin glargine [3]),Σ A0 compounds [area %] (pre-pro-insulin glargine [3]),A0-Arg-insulin glulisine [area %] [4],Arg-insulin-glulisine [area %] [4],Yield (external standard) [%] [4]
Serine190Alanine human trypsin variant,"High amounts of by-products, mainly B30-des-Thr- and A0-components, are formed during reaction",,,,,,,,,,,,,
B1,,96.5%,3.3 area %,4.1 area %,82.5 area %,0.9 area %,55.5 area %,62.9%,2.6 area %,0.4 area %,5.1 area %,1.2 area %,39.2 area %,100%
B2,,84.2%,7.2 area %,10.7 area %,68.8 area %,1.4 area %,51.1 area %,58.1%,5.6 area %,0.5 area %,10.9 area %,4.7 area %,35.8 area %,91.6%
